Consider four molecules from US20180185504A1 (Regeneron, published 2018).

Assay in all cases: SPR Biacore, 25 C, mAb capture
Experiment [1] has as its target T1, macaca fascicularis (mf) PRLR.mmh (soluble monomeric monkey PRLR) (Macaca fascicularis).
T1 construct: called soluble monomeric PRLR protein
T1 chain: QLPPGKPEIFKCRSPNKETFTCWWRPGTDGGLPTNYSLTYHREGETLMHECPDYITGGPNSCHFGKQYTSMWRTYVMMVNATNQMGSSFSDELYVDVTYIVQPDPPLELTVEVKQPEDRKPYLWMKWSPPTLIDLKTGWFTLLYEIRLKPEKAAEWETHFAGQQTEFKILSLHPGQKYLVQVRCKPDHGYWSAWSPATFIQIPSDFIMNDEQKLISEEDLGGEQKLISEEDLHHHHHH
The protocol:
(§1) Measurements were conducted on a T200 Biacore instrument. Kinetic association (kₐ) and dissociation (kd) rate constants were determined by processing and fitting the data to a 1:1 binding model using Scrubber 2.0 curve fitting software.

Experiment [2] deals with T2, hPRLR.mFc (soluble dimeric human PRLR) (human).
T2 construct: dimeric PRLR construct
T2 chain: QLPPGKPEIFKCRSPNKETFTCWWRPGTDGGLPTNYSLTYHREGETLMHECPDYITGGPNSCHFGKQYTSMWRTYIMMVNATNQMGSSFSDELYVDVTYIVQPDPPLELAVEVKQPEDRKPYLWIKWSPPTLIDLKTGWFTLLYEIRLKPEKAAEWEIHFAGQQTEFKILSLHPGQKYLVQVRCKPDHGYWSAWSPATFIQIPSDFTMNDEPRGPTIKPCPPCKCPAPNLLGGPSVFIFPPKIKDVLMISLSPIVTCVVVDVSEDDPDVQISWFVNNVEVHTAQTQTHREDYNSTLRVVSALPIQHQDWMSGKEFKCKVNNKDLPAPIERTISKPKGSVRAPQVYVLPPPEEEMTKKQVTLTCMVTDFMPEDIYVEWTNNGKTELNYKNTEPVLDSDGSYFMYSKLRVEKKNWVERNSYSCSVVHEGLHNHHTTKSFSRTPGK
The procedure: as §1

Experiment [3] has as its target T3, hPRLR.mmh (soluble monomeric human PRLR) (human).
T3 construct: called soluble monomeric PRLR protein
T3 chain: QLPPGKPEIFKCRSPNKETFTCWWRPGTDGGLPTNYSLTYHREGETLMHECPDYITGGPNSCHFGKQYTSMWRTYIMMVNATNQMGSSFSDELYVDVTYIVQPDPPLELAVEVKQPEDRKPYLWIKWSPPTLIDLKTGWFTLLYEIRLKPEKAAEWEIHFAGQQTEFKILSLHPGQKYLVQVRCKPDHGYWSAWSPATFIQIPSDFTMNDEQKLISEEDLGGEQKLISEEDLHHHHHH
The procedure:
as §1

B1: H1H6976N (antibody, human IgG1, V domains shown)
VH: EVQLLESGGGFVQPGGSLRLSCAASGFTFSSYAMSWVRQAPGKGLEWVSIISSNGRYTYYADSVKGRFTISRDNSKNTLYLQMNSLRAEDTAVYYCATVTGDWFDPWGQGTLVTVSS
VL: DIQLTQSPSFLSASVGDRVTITCWASQDIDISLAWYQQKPGKAPKLLIYAASTLQSGVPSKFSGSGSGTDFTLTISSLQPEDFSTYYCQQLNSYPITFGQGTRLDIK
notes: Tested with human IgG1 Fc (H1H); also called H2M6976N
As for B1, in experiment [1], the Kd (in general, a measure of binding affinity in units of concentration) is 1.75 nM; the T½ came out at 0.237 h; the koff – broadly, the first-order rate constant of dissociation – came to 0.000814 s⁻¹; the kon (as a rule, the rate constant with which the complex forms) was 466000 M⁻¹ s⁻¹. In experiment [2], this molecule gave a Kd of 0.0906 nM, a T½ of 1.91 h, an off-rate (koff) of 0.000101 s⁻¹ and a kon of 1.12e+06 M⁻¹ s⁻¹. In experiment [3], this molecule yielded a Kd of 1.59 nM, a T½ of 0.223 h, a koff of 0.000864 s⁻¹ and an on-rate constant (kon) of 544000 M⁻¹ s⁻¹.

B2: H1H6975N (antibody, human IgG1, V domains shown)
VH: EVHLVESGGGLVQPGGSLRLSCAASGFTFSSYEMNWVRQTPGKGLEWISHISSRSVIIYYADSVKGRFTISRDNAKNSLFLQMNSLRAEDTAVYFCAGITIFGIPEYWGQGTLVTVSS
VL: EIVLTQSPATLSLSPGERATLSCRASQSVSSYFAWYQQKPGQAPRLLIYDASSRATGIPTRFSGSGSGTDFTLTISSLEPEDFAVYYCQQRSSWPITFGQGTRLEIK
notes: Tested with human IgG1 Fc (H1H); also called H2M6975N
Consider B2, for which, in experiment [1], the affinity, expressed as Kd, was 1.14 nM; the T½ is 1.47 h; the koff was determined as 0.000131 s⁻¹; the kon worked out at 115000 M⁻¹ s⁻¹. For the same molecule, in experiment [2], the equilibrium dissociation constant (Kd) was 0.0684 nM, the T½ was determined as 9.8 h, the off-rate constant (koff) was determined as 1.97e-05 s⁻¹ and the kon stood at 287000 M⁻¹ s⁻¹. In experiment [3], this molecule displayed a Kd of 0.49 nM, a T½ of 2.62 h, a koff of 7.35e-05 s⁻¹ and a kon of 150000 M⁻¹ s⁻¹.

B3: H1H6966N (antibody, human IgG1, V domains shown)
VH: QVQLVQSGAEVQKPGASVKVSCKVSGYTLTALSIHWVRQAPGKGLEWMGNFDPGDGETIHAQKFQGRVTMTGDTSTDTAYMELSSLRSEDTAVYYCVGVTFDYWGQGTLVTVSS
VL: EIVMTQSPATLSVSPGERATLSCRASQSVASNLAWYQQKPGQAPRLLLYGASTRATGIPARFSGSGSGTEFTLTISSLQSEDFALYYCQHYNNWPLTFGGGTKVEIK
notes: Tested with human IgG1 Fc (H1H); also called H2M6966N
Turning to B3, in experiment [1], binding was put at a Kd of 0.416 nM, the T½ is 0.593 h, the koff is 0.000325 s⁻¹ and the kon came out at 782000 M⁻¹ s⁻¹. In experiment [2], this molecule came in with a Kd of 0.0439 nM, a T½ of 4.71 h, an off-rate constant (koff) of 4.08e-05 s⁻¹ and a kon of 931000 M⁻¹ s⁻¹. In experiment [3], this molecule came in with a dissociation constant (Kd) of 0.302 nM, a T½ of 0.748 h, an off-rate (koff) of 0.000257 s⁻¹ and an on-rate (kon) of 852000 M⁻¹ s⁻¹.

B4: H1H6967N (antibody, human IgG1, V domains shown)
VH: EVQLVESGGDLVHPGRSLRLSCAASGFPFDEYAMHWVRQVPGKGLEWVSGISWSNNNIGYADSVKGRFTISRDNAKNSLYLQMNSLRPEDTAFYYCAKSGIFDSWGQGTLVTVSS
VL: EIVMTQSPATLSVSPGERATLSCRASQSVSRDLAWYQQKPGQAPRLLIHGASTRATGIPARFSGSGSGAEFTLIISSLQSEDFAVYYCQQYNNWPLTFGGGTKVEIK
notes: Tested with human IgG1 Fc (H1H); also called H2M6967N
As to B4, in experiment [1], the affinity, expressed as Kd, was 3.08 nM; the T½ was 0.328 h; the off-rate constant (koff) was determined as 0.000585 s⁻¹; the kon was found to be 190000 M⁻¹ s⁻¹. In experiment [2], the Kd worked out at 0.11 nM, the T½ amounted to 4.32 h, the dissociation rate constant (koff) worked out at 4.45e-05 s⁻¹ and the kon was 407000 M⁻¹ s⁻¹. In experiment [3], this molecule gave a Kd of 1.35 nM, a T½ of 0.58 h, a koff of 0.000332 s⁻¹ and a kon of 246000 M⁻¹ s⁻¹.
